Source: PMC5505701, “Somatostatin binds to the human amyloid β peptide and favors the formation of distinct oligomers” (eLife, 2017)

Assays:
[1] = system: oligomeric versus monomeric Aβ1-42 (Aβ1-42-biotin bait); test: Affinity capture interactome Experiment III (oAβ1-42-biotin vs mAβ1-42-biotin); settings: oligomeric versus monomeric bait; human frontal lobe digitonin extract; TMT; pH 8.0, 4°C overnight
[2] = system: oligomeric Aβ1-42 (oAβ1-42-biotin bait); test: Affinity capture interactome Experiment II (C-terminally tethered oAβ1-42-biotin vs biotin); settings: enrichment relative to biotin-only negative control; human frontal lobe digitonin extract; TMT; pH 8.0, 4°C overnight

B1: Endophilin-A1: human brain protein (protein, UniProt Q99962 1-352, looked up)
Endophilin-A1: MSVAGLKKQFHKATQKVSEKVGGAEGTKLDDDFKEMERKVDVTSRAVMEIMTKTIEYLQPNPASRAKLSMINTMSKIRGQEKGPGYPQAEALLAEAMLKFGRELGDDCNFGPALGEVGEAMRELSEVKDSLDIEVKQNFIDPLQNLHDKDLREIQHHLKKLEGRRLDFDYKKKRQGKIPDEELRQALEKFDESKEIAESSMFNLLEMDIEQVSQLSALVQAQLEYHKQAVQILQQVTVRLEERIRQASSQPRREYQPKPRMSLEFPTGDSTQPNGGLSHTGTPKPSGVQMDQPCCRALYDFEPENEGELGFKEGDIITLTNQIDENWYEGMLHGHSGFFPINYVEILVALPH
Experiment III oAβ1-42-B/mAβ1-42-B Ratio [1]: 1.07
Experiment II oAβ1-42-B/B Ratio [2]: 1.28

B2: Tubulin beta-3 chain: human brain protein (protein, UniProt Q13509 1-450, looked up)
Tubulin beta-3 chain: MREIVHIQAGQCGNQIGAKFWEVISDEHGIDPSGNYVGDSDLQLERISVYYNEASSHKYVPRAILVDLEPGTMDSVRSGAFGHLFRPDNFIFGQSGAGNNWAKGHYTEGAELVDSVLDVVRKECENCDCLQGFQLTHSLGGGTGSGMGTLLISKVREEYPDRIMNTFSVVPSPKVSDTVVEPYNATLSIHQLVENTDETYCIDNEALYDICFRTLKLATPTYGDLNHLVSATMSGVTTSLRFPGQLNADLRKLAVNMVPFPRLHFFMPGFAPLTARGSQQYRALTVPELTQQMFDAKNMMAACDPRHGRYLTVATVFRGRMSMKEVDEQMLAIQSKNSSYFVEWIPNNVKVAVCDIPPRGLKMSSTFIGNSTAIQELFKRISEQFTAMFRRKAFLHWYTGEGMDEMEFTEAESNMNDLVSEYQQYQDATAEEEGEMYEDDEEESEAQGPK
Experiment III oAβ1-42-B/mAβ1-42-B Ratio [1]: 2.04
Experiment II oAβ1-42-B/B Ratio [2]: 1.18

B3: ATP synthase subunit alpha, mitochondrial: human brain protein (protein, UniProt P25705 44-553, looked up)
ATP synthase F(1) complex …: QKTGTAEMSSILEERILGADTSVDLEETGRVLSIGDGIARVHGLRNVQAEEMVEFSSGLKGMSLNLEPDNVGVVVFGNDKLIKEGDIVKRTGAIVDVPVGEELLGRVVDALGNAIDGKGPIGSKTRRRVGLKAPGIIPRISVREPMQTGIKAVDSLVPIGRGQRELIIGDRQTGKTSIAIDTIINQKRFNDGSDEKKKLYCIYVAIGQKRSTVAQLVKRLTDADAMKYTIVVSATASDAAPLQYLAPYSGCSMGEYFRDNGKHALIIYDDLSKQAVAYRQMSLLLRRPPGREAYPGDVFYLHSRLLERAAKMNDAFGGGSLTALPVIETQAGDVSAYIPTNVISITDGQIFLETELFYKGIRPAINVGLSVSRVGSAAQTRAMKQVAGTMKLELAQYREVAAFAQFGSDLDAATQQLLSRGVRLTELLKQGQYSPMAIEEQVAVIYAGVRGYLDKLEPSKITKFENAFLSHVVSQHQALLGTIRADGKISEQSDAKLKEIVTNFLAGFEA
Experiment III oAβ1-42-B/mAβ1-42-B Ratio [1]: 4.88
Experiment II oAβ1-42-B/B Ratio [2]: 2.16

B4: Heat shock protein, 60 kDa, mitochondrial: human brain protein (protein, UniProt P10809 27-573, looked up)
60 kDa heat shock protein, …: AKDVKFGADARALMLQGVDLLADAVAVTMGPKGRTVIIEQSWGSPKVTKDGVTVAKSIDLKDKYKNIGAKLVQDVANNTNEEAGDGTTTATVLARSIAKEGFEKISKGANPVEIRRGVMLAVDAVIAELKKQSKPVTTPEEIAQVATISANGDKEIGNIISDAMKKVGRKGVITVKDGKTLNDELEIIEGMKFDRGYISPYFINTSKGQKCEFQDAYVLLSEKKISSIQSIVPALEIANAHRKPLVIIAEDVDGEALSTLVLNRLKVGLQVVAVKAPGFGDNRKNQLKDMAIATGGAVFGEEGLTLNLEDVQPHDLGKVGEVIVTKDDAMLLKGKGDKAQIEKRIQEIIEQLDVTTSEYEKEKLNERLAKLSDGVAVLKVGGTSDVEVNEKKDRVTDALNATRAAVEEGIVLGGGCALLRCIPALDSLTPANEDQKIGIEIIKRTLKIPAMTIAKNAGVEGSLIVEKIMQSSSEVGYDAMAGDFVNMVEKGIIDPTKVVRTALLDAAGVASLLTTAEVVVTEIPKEEKDPGMGAMGGMGGGMGGGMF
Experiment III oAβ1-42-B/mAβ1-42-B Ratio [1]: 4.21
Experiment II oAβ1-42-B/B Ratio [2]: 2.27
